Test results taken from patent publication US20230049752A1 (University of California, published 2023).

Key:
[1] = target: human Claudin-6 (CLDN6) (human) (UniProt P56747); assay: flow cytometry, UMUC4 cells (positive cell line); 2nd Ab only 1,114.73
[2] = target: human Claudin-6 (CLDN6) (human) (UniProt P56747); assay: KinExA, HEK293T CLDN6-mGFP A11 cells detached by Versene, equilibrium curves 500pM, 10nM; printed 95% CI 0.53nM - 2.03nM
mouse Claudin-6 (CLDN6) = target: T1, mouse Claudin-6 (CLDN6) (mouse, UniProt Q9Z262 1-219); assay: FACS, 293T clone expressing mouse CLDN6, dose not stated (2nd Ab only 1061.72)
T1 construct: whole, on cells; GFP fusion on engineered HEK293T cells; also called Mouse CLDN6; murine CLDN6
T1 sequence (looked up): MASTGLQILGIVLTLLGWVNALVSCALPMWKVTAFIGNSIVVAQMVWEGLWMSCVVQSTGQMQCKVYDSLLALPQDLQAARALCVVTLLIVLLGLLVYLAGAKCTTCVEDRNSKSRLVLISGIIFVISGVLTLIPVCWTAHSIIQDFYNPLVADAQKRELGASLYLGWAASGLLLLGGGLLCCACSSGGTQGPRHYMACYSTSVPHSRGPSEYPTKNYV
Procedure: Two doses (1.5 μg or 0.3 μg) of the humanized antibodies were tested for binding to either human CLDN6 or murine CLDN6 which proteins were expressed by engineered 293T clones.

[3] = target: human Claudin-6 (CLDN6) (human) (UniProt P56747); assay: flow cytometry, HEK293T CLDN6-mGFP A11 cells (positive artificial OE cell line); 2nd Ab only 1,242.89
[4] = target: human Claudin-6 (CLDN6) (human) (UniProt P56747); assay: FACS, limiting dilution, UMUC4 cells
[5] = target: human Claudin-6 (CLDN6) (human) (UniProt P56747); assay: FACS, limiting dilution, OV90 cells
[6] = target: human Claudin-6 (CLDN6) (human) (UniProt P56747); assay: FACS, 1.5 ug Ab, 293T clone expressing human CLDN6 (2nd Ab only 768.07)
[7] = target: human Claudin-6 (CLDN6) (human) (UniProt P56747); assay: FACS, limiting dilution, ARK2 cells
[8] = target: human Claudin-6 (CLDN6) (human) (UniProt P56747); assay: FACS, 1.5 ug Ab, ARK2 cells (2nd Ab only 1351.21)
[9] = target: human Claudin-6 (CLDN6) (human) (UniProt P56747); assay: FACS, 0.3 ug Ab, 293T clone expressing human CLDN6 (2nd Ab only 768.07)
[10] = target: human Claudin-6 (CLDN6) (human) (UniProt P56747); assay: FACS, 0.3 ug Ab, ARK2 cells (2nd Ab only 1351.21)
[11] = target: human Claudin-6 (CLDN6) (human) (UniProt P56747); assay: KinExA, HEK293T CLDN6-mGFP A11 cells detached by Versene, equilibrium curves 500pM, 10nM; printed 95% CI 1.07nM - 7.74nM
[12] = target: human Claudin-6 (CLDN6) (human) (UniProt P56747); assay: KinExA, HEK293T CLDN6-mGFP A11 cells detached by Versene, equilibrium curves 500pM, 10nM; printed 95% CI 1.46nM - 6.47nM
[13] = target: human Claudin-6 (CLDN6) (human) (UniProt P56747); assay: KinExA, HEK293T CLDN6-mGFP A11 cells detached by Versene, equilibrium curves 500pM, 10nM; printed 95% CI 2.10nM - 5.42nM

B1: AB3-7 (antibody, V domains shown)
VH: EVQLLESGGGLVQPGGSMRLSCAASGFTFSNYWMNWVRQAPGKGLEWVAQIRLKSDNYATHYADSVKGRFTISRDDSKNTVYLQMNSLRAEDTGVYYCNDGPPSGSWGQGTLLTVSS
VL: DIQMTQSPSSLSASVGDRVTITCRISENIYSYLAWYQQKPGKAPKLLVYNAKILVEGVPSRFSGSGSGTDFTLTISSLQPEDFGTYYCQHHYTVPWTFGQGTKLEIK
notes: humanized; also called AB23; humanized AB3-7
B1 showed a flow cytometry signal at 0.1µg Ab/Sample [1] of 8820, a flow cytometry signal at 1µg Ab/Sample [1] of 27300 and a Kd [2] of 1.13 nM. The FACS fluorescence (mouse Claudin-6 (CLDN6)) was 56100, the flow cytometry signal at 0.1µg Ab/Sample [3] was 107000 and the FACS signal at 0.32 nM [4] was 604. For the same binder, the FACS signal at 1.6 nM [4] was 570, the FACS signal at 8 nM [4] was 724 and the FACS signal at 40 nM [4] was 1120. It also gave an FACS signal at 200 nM [4] of 2110, an FACS signal at 1000 nM [4] of 9840 and an FACS signal at 0.32 nM [5] of 393. It also gave an FACS signal at 1.6 nM [5] of 567, an FACS signal at 8 nM [5] of 565 and an FACS signal at 40 nM [5] of 1140. For the same binder, the FACS signal at 200 nM [5] was 2330, the FACS signal at 1000 nM [5] was 9390 and the FACS fluorescence [6] was 169000. For the same binder, the FACS signal at 0.32 nM [7] was 402, the FACS signal at 1.6 nM [7] was 537 and the FACS signal at 8 nM [7] was 991. For the same binder, the FACS signal at 40 nM [7] was 1640, the FACS signal at 200 nM [7] was 3060 and the FACS signal at 1000 nM [7] was 11400. The FACS fluorescence [8] was 90400, the FACS fluorescence [9] was 106000 and the FACS fluorescence [10] was 36000.

B2: CLDN6 ADC: AB3-7 conjugated to CL2A-SN38 (D4 technology) (antibody, V domains shown)
VH: EVQLLESGGGLVQPGGSMRLSCAASGFTFSNYWMNWVRQAPGKGLEWVAQIRLKSDNYATHYADSVKGRFTISRDDSKNTVYLQMNSLRAEDTGVYYCNDGPPSGSWGQGTLLTVSS
VL: DIQMTQSPSSLSASVGDRVTITCRISENIYSYLAWYQQKPGKAPKLLVYNAKILVEGVPSRFSGSGSGTDFTLTISSLQPEDFGTYYCQHHYTVPWTFGQGTKLEIK
modifications: antibody conjugated to CL2A-SN38, mostly 4 drugs per antibody; attachment residues not stated
For B2, the flow cytometry signal at 0.1µg Ab/Sample [1] was 9140, the flow cytometry signal at 1µg Ab/Sample [1] was 34600 and the Kd [11] was 2.87 nM.

B3: CLDN6 ADC: AB3-7 conjugated to MC-GGFG-DXD (antibody, V domains shown)
VH: EVQLLESGGGLVQPGGSMRLSCAASGFTFSNYWMNWVRQAPGKGLEWVAQIRLKSDNYATHYADSVKGRFTISRDDSKNTVYLQMNSLRAEDTGVYYCNDGPPSGSWGQGTLLTVSS
VL: DIQMTQSPSSLSASVGDRVTITCRISENIYSYLAWYQQKPGKAPKLLVYNAKILVEGVPSRFSGSGSGTDFTLTISSLQPEDFGTYYCQHHYTVPWTFGQGTKLEIK
modifications: antibody conjugated to MC-GGFG-DXD; attachment residues not stated
With B3 the flow cytometry signal at 0.1µg Ab/Sample [1] was 10500, the flow cytometry signal at 1µg Ab/Sample [1] was 32800 and the flow cytometry signal at 0.1µg Ab/Sample [3] was 121000. For the same binder, the Kd [12] was 3.01 nM.

B4: CLDN6 ADC: AB3-7 conjugated to MC-VC-PAB-DXD (antibody, V domains shown)
VH: EVQLLESGGGLVQPGGSMRLSCAASGFTFSNYWMNWVRQAPGKGLEWVAQIRLKSDNYATHYADSVKGRFTISRDDSKNTVYLQMNSLRAEDTGVYYCNDGPPSGSWGQGTLLTVSS
VL: DIQMTQSPSSLSASVGDRVTITCRISENIYSYLAWYQQKPGKAPKLLVYNAKILVEGVPSRFSGSGSGTDFTLTISSLQPEDFGTYYCQHHYTVPWTFGQGTKLEIK
modifications: antibody conjugated to MC-VC-PAB-DXD; attachment residues not stated
In the case of B4, the flow cytometry signal at 0.1µg Ab/Sample [1] is reported as 10800, the flow cytometry signal at 1µg Ab/Sample [1] is reported as 32600 and the Kd [13] is reported as 3.42 nM. For the same binder, the flow cytometry signal at 0.1µg Ab/Sample [3] was 110000.
